Experimental data reported in article PMC3688800.
pKi: −log10 of the molar value.

Columns and labels:
[1] = molecular target: Crataeva tapia bark protein (CrataBL) (Crataeva tapia) (UniProt U3KRG0); assay: SEC; Superdex 75 equilibrated in 0.15 M NaCl; at the concentration used in the crystallization trials
bovine trypsin (bovine) = assay: enzyme inhibition assay; chromogenic or fluorogenic substrates in 96-well plates at 37°C; enzyme pre-incubated with CrataBL for 10 min; apparent Ki (Kiapp) by fit to the equation for slow-tight binding; buffer specific for each enzyme (trypsin 40 nM in 0.1 M Tris-HCl pH 8.0 with CaCl2; Factor Xa 21 nM in 0.02 M Tris-HCl pH 7.4, 0.14 M NaCl, 5.0 mM CaCl2, 0.1% BSA)
human Factor Xa (human) = assay: as above

In the case of “Crataeva tapia bark protein (CrataBL) (from UniProt U3KRG0 1-165) (natural protein)”, the stoichiometry N [1] was 2, the pKi (bovine trypsin (bovine)) was 4.37 and the pKi (human Factor Xa (human)) was 5.07.
